Values belong to the substance of their own block, whether it stands above or below them.
Experiments:
[1] = molecular target: NMHC II-A artificial polypeptide (Seq ID No: 3); experiment: indirect ELISA, antigen coated 200 ng/well, serum dilution 10^-2; control of the anti-polypeptide (Seq ID No: 3) group
[2] = molecular target: non-muscle myosin heavy chain II-A (NMHC II-A) protein; experiment: as above
[3] = molecular target: non-muscle myosin heavy chain II-A (NMHC II-A) protein; experiment: indirect ELISA, antigen coated 200 ng/well, serum dilution 10^-4; control of the anti-polypeptide (Seq ID No: 4) group
[4] = molecular target: NMHC II-A artificial polypeptide (Seq ID No: 4); experiment: as above
[5] = molecular target: NMHC II-A artificial polypeptide (Seq ID No: 3); experiment: indirect ELISA, antigen coated 200 ng/well, serum dilution 10^-4; control of the anti-polypeptide (Seq ID No: 3) group
[6] = molecular target: non-muscle myosin heavy chain II-A (NMHC II-A) protein; experiment: indirect ELISA, antigen coated 200 ng/well, serum dilution 10^-5; control of the anti-polypeptide (Seq ID No: 2) group
[7] = molecular target: NMHC II-A artificial polypeptide (Seq ID No: 2); experiment: as above
[8] = molecular target: non-muscle myosin heavy chain II-A (NMHC II-A) protein; experiment: indirect ELISA, antigen coated 200 ng/well, serum dilution 10^-2; control of the anti-polypeptide (Seq ID No: 4) group
[9] = molecular target: NMHC II-A artificial polypeptide (Seq ID No: 4); experiment: as above
[10] = molecular target: NMHC II-A artificial polypeptide (Seq ID No: 3); experiment: indirect ELISA, antigen coated 200 ng/well, serum dilution 10^-3; control of the anti-polypeptide (Seq ID No: 3) group
[11] = molecular target: non-muscle myosin heavy chain II-A (NMHC II-A) protein; experiment: as above
[12] = molecular target: NMHC II-A artificial polypeptide (Seq ID No: 3); experiment: indirect ELISA, antigen coated 200 ng/well, serum dilution 10^-5; control of the anti-polypeptide (Seq ID No: 3) group
[13] = molecular target: non-muscle myosin heavy chain II-A (NMHC II-A) protein; experiment: as above
[14] = molecular target: non-muscle myosin heavy chain II-A (NMHC II-A) protein; experiment: indirect ELISA, antigen coated 200 ng/well, serum dilution 10^-3; control of the anti-polypeptide (Seq ID No: 2) group
[15] = molecular target: NMHC II-A artificial polypeptide (Seq ID No: 2); experiment: as above
[16] = molecular target: non-muscle myosin heavy chain II-A (NMHC II-A) protein; experiment: indirect ELISA, antigen coated 200 ng/well, serum dilution 10^-2; control of the anti-polypeptide (Seq ID No: 2) group
[17] = molecular target: NMHC II-A artificial polypeptide (Seq ID No: 2); experiment: as above
[18] = molecular target: non-muscle myosin heavy chain II-A (NMHC II-A) protein; experiment: indirect ELISA, antigen coated 200 ng/well, serum dilution 10^-4; control of the anti-polypeptide (Seq ID No: 2) group
[19] = molecular target: NMHC II-A artificial polypeptide (Seq ID No: 2); experiment: as above
[20] = molecular target: non-muscle myosin heavy chain II-A (NMHC II-A) protein; experiment: indirect ELISA, antigen coated 200 ng/well, serum dilution 10^-5; control of the anti-polypeptide (Seq ID No: 4) group
[21] = molecular target: NMHC II-A artificial polypeptide (Seq ID No: 4); experiment: as above
[22] = molecular target: non-muscle myosin heavy chain II-A (NMHC II-A) protein; experiment: indirect ELISA, antigen coated 200 ng/well, serum dilution 10^-3; control of the anti-polypeptide (Seq ID No: 4) group
[23] = molecular target: NMHC II-A artificial polypeptide (Seq ID No: 4); experiment: as above
PRRS virus (PRRSV) = experiment: cell-based or functional assay

OD value (450 nm) [1]: 0.11 OD
OD value (450 nm) [2]: 0.12 OD
OD value (450 nm) [3]: 0.08 OD
OD value (450 nm) [4]: 0.1 OD
OD value (450 nm) [5]: 0.09 OD
OD value (450 nm) [6]: 0.08 OD
OD value (450 nm) [7]: 0.07 OD
OD value (450 nm) [8]: 0.14 OD
OD value (450 nm) [9]: 0.15 OD
OD value (450 nm) [10]: 0.13 OD
OD value (450 nm) [11]: 0.11 OD
OD value (450 nm) [12]: 0.08 OD
OD value (450 nm) [13]: 0.07 OD
OD value (450 nm) [14]: 0.1 OD
OD value (450 nm) [15]: 0.11 OD
OD value (450 nm) [16]: 0.13 OD
OD value (450 nm) [17]: 0.12 OD
OD value (450 nm) [18]: 0.1 OD
OD value (450 nm) [19]: 0.08 OD
OD value (450 nm) [20]: 0.07 OD
OD value (450 nm) [21]: 0.09 OD
OD value (450 nm) [22]: 0.11 OD
OD value (450 nm) [23]: 0.13 OD
Substance: Negative control sera (mouse serum before immunization) (antibody)

Substance: non-muscle myosin heavy chain II-A (NMHC II-A) protein (receptor)
CPE caused by PRRSV on Marc-145 and PAM cells, blocker at 1 µg/well ('+' means CPE in 25% cells) (% cells with CPE) (PRRS virus (PRRSV)): 25

Source: patent US20120107932A1, “PRRS-VIRUS RECEPTOR AND ITS INHIBITOR” (priority 2009, published 2012)
